Measurements taken from publication PMC5570165.

System: p19 N15K,G16R
Assay: BLI / MSD-SET
Conditions: 2'-OMe at select positions, BLI: citrate-phosphate buffer, 100 mM NaCl, 0.1% BSA, 0.002% Tween-20, 37 C (pH of the siRNA assay not stated), MSD-SET: PBS, 100 pM siRNA, 24 h …

“AACGCUGGGCGUUAAUCAATT / UUGAUUAACGCCCAGCGUUTT [Seq 7 siRNA]” showed a binding signal (fold higher affinity than p19 (up to)) of 160.
